Source: publication PMC2770665

Key:
[1] = biological target: T1, EcoRII-C (UniProt P14633 183-404); assay: EMSA
T1 sequence: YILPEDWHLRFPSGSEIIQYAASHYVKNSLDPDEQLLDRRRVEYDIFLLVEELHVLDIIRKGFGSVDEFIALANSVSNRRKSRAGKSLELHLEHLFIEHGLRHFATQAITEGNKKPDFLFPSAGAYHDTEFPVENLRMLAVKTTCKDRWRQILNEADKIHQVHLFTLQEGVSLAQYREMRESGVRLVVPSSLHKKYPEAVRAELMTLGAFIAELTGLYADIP

[2] = biological target: T2, EcoRII-N (His-tagged) (UniProt P14633 1-180); assay: EMSA
T2 sequence: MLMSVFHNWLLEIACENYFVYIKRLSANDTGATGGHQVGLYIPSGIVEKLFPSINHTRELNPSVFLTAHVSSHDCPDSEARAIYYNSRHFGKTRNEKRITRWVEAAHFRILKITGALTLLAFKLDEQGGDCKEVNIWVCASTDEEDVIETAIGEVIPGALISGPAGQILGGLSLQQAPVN

| Binder | binding result [1] | binding result [2] |
| --- | --- | --- |
| DM 16-mer (dsDNA, 5-methylcytosine at strand 1 position 7 and strand 2 position 8) DNA 1: CGTAGCCTGGTCGATC DNA 2: GATCGACCAGGCTACG | no binding | – |
| HM(T) 16-mer (dsDNA, 5-methylcytosine at strand 1 position 7 (second C of CCTGG)) DNA 1: CGTAGCCTGGTCGATC DNA 2: GATCGACCAGGCTACG | – | no binding |
| HM(A) 16-mer (dsDNA, 5-methylcytosine at strand 2 position 8 (second C of CCAGG)) DNA 1: CGTAGCCTGGTCGATC DNA 2: GATCGACCAGGCTACG | – | no binding |
| T/2 25-mer (dsDNA, strand 2 position 13 is 2-aminopurine (written A) replacing central A) DNA 1: CGCACGACTTCCTGGAAGAGCACGC DNA 2: GCGTGCTCTTCCAGGAAGTCGTGCG | – | no binding |
